Changes are numbered by the printed parent chain. Numbers in names are those of the source. Like-named read-outs stand apart in the source and are kept apart here.
Tests used:
MP = tested on: T1, MP; assay: Initial-rate assay without 3-PGA, ATP and G-1-P both varied (0.01-10 mM and 0.1-25 mM), global fit to a sequential mechanism.; format: biochemical; settings: read-out: G-1-P Km (absence of 3-PGA)
T1 construct: small subunit of first 198 amino acids of maize BT2 and last 277 of potato tuber small subunit, with wild type SH2

MP + SH2-E = tested on: T2, MP + SH2-E; assay: as above; format: biochemical; settings: read-out: G-1-P Km (absence of 3-PGA)
T2 construct: chimeric small subunit MP (maize 198 / potato 277 amino acids) with SH2-E

maize endosperm AGPase [1] = assay: Kinetic values in the absence of 3-PGA; format: biochemical
Description: (1) v=VAB/(KiaKmb+KmbA+KmaB+AB

maize endosperm AGPase [2] = assay: Catalytic activity at 37 and 55°C (end point PPi assay); format: biochemical
Method: Reactions proceeded for 2, 4, 6, 8, 10, and 15 min and were terminated by boiling. Reaction mixes (1300 μl) were pre-warmed to 37°C or 55°C and the assay was started with the addition of the enzyme. Assay time points (200 μl) were removed at the appropriate time and boiled for 2 min. At 37°C all reactions were linear for 15 min; however, at 55°C rates were linear for a shorter duration. A rate was only calculated if the reactions were linear for at least 10 min.
The amount of PPi produced in the reaction was coupled to a decrease in NADH concentration. Coupling reagent contained 25 mM imidazole pH 7.4, 4 mM MgCl2, 1 mM EDTA, 0.2 mM NADH, 0.725 U aldolase, 0.4 U triose phosphate isomerase, 0.6 U glycerophosphate dehydrogenase, 1 mM fructose 6-phosphate and 0.8 μg purified PPi-PFK per reaction. Blank samples contained complete reaction mixtures minus the enzyme. Change in absorbance between the blank and the reaction was used to calculate the amount of PPi produced. All reactions were linear with time and enzyme concentration.

maize endosperm AGPase [3] = assay: 3-PGA activation constant (Ka), Vmin and Vmax; format: biochemical; settings: change in activity from Vmin to total velocity with 3-PGA; substrates 2 mM
Description: All reactions were developed as above.

maize endosperm AGPase [4] = assay: Pi inhibition in the absence of 3-PGA; format: biochemical; settings: for α / β: absence of 3-PGA
Description: (§1) (2) v=Vm(S/Ks+(βSI)/(αKiKs))/(1+S/Ks+I/Ki+SI/αKiKs)P-MT
(§2) (3) v=Vm(S/Ks)/(1+S/Ks+I/Ki+SI/αKiKs)L-MT

maize endosperm AGPase [5] = assay: Pi inhibition in the presence of 3-PGA; format: biochemical
Description: as §1, §2

E. coli AC70R1-504 = settings: 2015, cited from earlier work
maize endosperm AGPase [6] = settings: cited from earlier work
maize endosperm AGPase [7] = settings: ref Boehlein et al., 2015; cited from earlier work
maize endosperm AGPase [8] = molecular target: maize endosperm AGPase; design: method as in Georgelis et al., 2009; Boehlein et al., 2015; settings: ref Georgelis et al., 2009; Boehlein et al., 2015; cited from earlier work
[9] = growth at 37 and 42°C, SH2 variants, ref Boehlein et al.

With O=P(O)(O)O[C@H]1O[C@H](CO)[C@@H](O)[C@H](O)[C@H]1O [G-1-P, glucose-1-phosphate] the Km (MP) was 11.9 ± 3 mM and the Km (MP + SH2-E) was 0.09 ± 0.008 mM.

B1: wt: wild type maize endosperm AGPase: SH2 large subunit with BT2 small subunit, expressed in E. coli (protein, UniProt P55241 46-516; P55241 46-516, looked up)
Glucose-1-phosphate … 1: FGGRVAATTQCILTSDACPETLHSQTQSSRKNYADANRVSAIILGGGTGSQLFPLTSTRATPAVPVGGCYRLIDIPMSNCFNSGINKIFVMSQFNSTSLNRHIHRTYLEGGINFADGSVQVLAATQMPEEPAGWFQGTADSIRKFIWVLEDYYSHKSIDNIVILSGDQLYRMNYMELVQKHVEDDADITISCAPVDESRASKNGLVKIDHTGRVLQFFEKPKGADLNSMRVETNFLSYAIDDAQKYPYLASMGIYVFKKDALLDLLKSKYTQLHDFGSEILPRAVLDHSVQACIFTGYWEDVGTIKSFFDANLALTEQPSKFDFYDPKTPFFTAPRCLPPTQLDKCKMKYAFISDGCLLRECNIEHSVIGVCSRVSSGCELKDSVMMGADTYETEEEASKLLLAGKVPVGIGRNTKIRNCIIDMNARIGKNVVITNSKGIQEADHPEEGYYIRSGIVVILKNATINDGSVI
Glucose-1-phosphate … 2: B1 Glucose-1-phosphate … 1
modifications: expressed in E. coli
With B1 the “reduction of the Km values of both substrates by binding of 3PGA” value (maize endosperm AGPase [1]; Km without 3PGA versus with 3PGA) was “over 50 fold”, the Km (maize endosperm AGPase [1]; absence of 3-PGA, read-out: ATP Km) was ~4 mM and the Km (maize endosperm AGPase [1]; read-out: G-1-P Km (absence of 3-PGA)) was 3 mM. The “Activity at 37°C” value (maize endosperm AGPase [2]; 37°C, 5 mM ATP, 2 mM G-1-P, 2.5 mM 3-PGA, purified enzyme from E. coli) was 5415 ± 268, the “activity at 55°C (in words)” value (maize endosperm AGPase [2]; 55°C) was “not active” and the Vmax (maize endosperm AGPase [3]) was 6352 ± 540. The “Ki for Pi higher in the absence of 3PGA compared to the presence of 3PGA” value (maize endosperm AGPase [4]) was 5–10 fold, the α (maize endosperm AGPase [4]; varied substrate ATP) was 0.063 ± 0.034 and the β (maize endosperm AGPase [4]; varied substrate ATP) was 0.52 ± 0.17. It also gave a α (maize endosperm AGPase [4]; varied substrate G-1-P) of 0.095 ± 0.065, a β (maize endosperm AGPase [4]; varied substrate G-1-P) of 0.92 ± 0.31 and a α (maize endosperm AGPase [5]; varied substrate ATP) of 4.61 ± 0.07. It also gave a β (maize endosperm AGPase [5]; varied substrate ATP) of 0.83 ± 0.037, a α (maize endosperm AGPase [5]; varied substrate G-1-P) of 0.90 ± 0.012 and a β (maize endosperm AGPase [5]; varied substrate G-1-P) of 0.52 ± 0.023.

B2: K445R: SH2 large subunit variant K445R (protein, UniProt P55241 46-516, looked up, variant K445R)
Glucose-1-phosphate …: B1 Glucose-1-phosphate … 1 with K400R
For B2, the “glycogen staining (in words)” value (E. coli AC70R1-504; [9]) is listed as “Stained darker at 37 and 42 °C”.

B3: S444A: SH2 large subunit variant S444A (protein, UniProt P55241 46-516, looked up, variant S444A)
Glucose-1-phosphate …: B1 Glucose-1-phosphate … 1 with S399A
In the case of B3, the “effect on 3-PGA Ka (in words)” value (maize endosperm AGPase [6]; ref Boehlein et al., 2014) is given as “Did not alter 3-PGA Ka”.

B4: S444R: SH2 large subunit variant S444R (protein, UniProt P55241 46-516, looked up, variant S444R)
Glucose-1-phosphate …: B1 Glucose-1-phosphate … 1 with S399R
In the case of B4, the “activity at 37° (in words)” value (maize endosperm AGPase [7]) is listed as “had higher activity at 37°” and the “glycogen staining (in words)” value (E. coli AC70R1-504; [9]) is listed as “Stained darker at 37 and 42°”.

B5: P372A: SH2 large subunit variant P372A (protein, UniProt P55241 46-516, looked up, variant P372A)
Glucose-1-phosphate …: B1 Glucose-1-phosphate … 1 with P327A
In the case of B5, the “effect on 3-PGA Ka (in words)” value (maize endosperm AGPase [6]; ref Georgelis et al., 2009, Boehlein et al., 2015) is given as “Increased 3-PGA Ka”, the “effect on Ki for phosphate (in words)” value (maize endosperm AGPase [8]) is given as “decreased Ki for phosphate” and the “glycogen staining (in words)” value (E. coli AC70R1-504; ref Georgelis et al., 2009, Boehlein et al.) is given as “reduced glycogen staining”.

B6: E438Q: SH2 large subunit variant E438Q (protein, UniProt P55241 46-516, looked up, variant E438Q)
Glucose-1-phosphate …: B1 Glucose-1-phosphate … 1 with E393Q
For B6, the “effect on 3-PGA Ka (in words)” value (maize endosperm AGPase [6]; ref Georgelis et al., 2009) is given as “Did not alter 3-PGA Ka”.
